The experiment addresses T1, recombinant human Cyclophilin A (CypA) (human, UniProt P62937 1-165).
T1 construct: also called human peptidyl prolyl isomerase CypA; source: E. coli BL21(DE3), pET11c, purified (DEAE-Sepharose flow-through, MonoS cation exchange)
In words: SPR. To be noted: both partners purified.

T1 sequence (P62937 whole entry): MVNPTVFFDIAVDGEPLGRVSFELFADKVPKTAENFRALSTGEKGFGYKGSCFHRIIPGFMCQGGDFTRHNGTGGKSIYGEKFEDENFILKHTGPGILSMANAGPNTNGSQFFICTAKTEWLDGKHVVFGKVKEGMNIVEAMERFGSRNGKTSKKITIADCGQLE

For ELKSEAVRHFPRIWLH (source: synthetic peptide) [synthetic HIV-1 Vpr peptide sVpr^25-40], the Kd (in general, the constant that tells how readily two partners part at equilibrium) came out at 404 µM; the “ka1 (two-state model, association)” value was determined as 2000 M⁻¹ s⁻¹; the “ka2 (two-state model, forward rate)” value came to 0.0028 s⁻¹; the “kd1 (two-state model, dissociation)” value worked out at 0.942 s⁻¹. Moreover, the “kd2 (two-state model, backward rate)” value came out at 0.0173 s⁻¹.

AVRHFPRIWLH (source: synthetic peptide) [synthetic HIV-1 Vpr peptide sVpr^30-40]: the Kd came to 167 µM; the “ka1 (two-state model, association)” value amounted to 2470 M⁻¹ s⁻¹; the “ka2 (two-state model, forward rate)” value turned out to be 0.00145 s⁻¹; the “kd1 (two-state model, dissociation)” value was 0.527 s⁻¹. The “kd2 (two-state model, backward rate)” value was found to be 0.0053 s⁻¹.

For the molecule ELLEELKSEAVRHFPRIWLH (source: synthetic peptide) [synthetic HIV-1 Vpr peptide sVpr^21-40], the Kd turned out to be 201 µM; the “ka1 (two-state model, association)” value worked out at 466 M⁻¹ s⁻¹; the “ka2 (two-state model, forward rate)” value was 0.0084 s⁻¹; the “kd1 (two-state model, dissociation)” value was found to be 0.164 s⁻¹. For the same molecule, the “kd2 (two-state model, backward rate)” value came out at 0.011 s⁻¹.

On to HFPRI (source: synthetic peptide) [synthetic HIV-1 Vpr peptide sVpr^33-37], for which the Kd worked out at 3570 µM; the “ka1 (two-state model, association)” value was 120 M⁻¹ s⁻¹; the “ka2 (two-state model, forward rate)” value was 0.00138 s⁻¹; the “kd1 (two-state model, dissociation)” value is 0.66 s⁻¹. The “kd2 (two-state model, backward rate)” value was 0.0025 s⁻¹.

As for RHFPRIW (source: synthetic peptide) [synthetic HIV-1 Vpr peptide sVpr^32-38], the Kd worked out at 487 µM; the “ka1 (two-state model, association)” value was 924 M⁻¹ s⁻¹; the “ka2 (two-state model, forward rate)” value worked out at 0.0011 s⁻¹; the “kd1 (two-state model, dissociation)” value stood at 0.67 s⁻¹. In addition, the “kd2 (two-state model, backward rate)” value amounted to 0.0023 s⁻¹.

The values above are taken from publication PMC2959089, “The intriguing Cyclophilin A-HIV-1 Vpr interaction: prolyl cis/trans isomerisation catalysis and specific binding” (BMC Structural Biology, 2010).
